Results on four proteins are retold here after paper PMC7037157, “Parallel Strategy Increases the Thermostability and Activity of Glutamate Decarboxylase” (Molecules, 2020).

Where a chain is given by its changes, count along the chain named. Names may count otherwise.

A word on the Km: it is the concentration of substrate that gives half-maximal velocity. For orientation: kcat means the maximal rate divided by the concentration of active sites. As usually defined, the kcat/Km is the second-order rate constant that governs catalysis at low substrate concentration.

Substrate in this data set: N[C@@H](CCC(=O)O)C(=O)O
Kind of data set: initial rates; GABA dansylated, HPLC. Type of data set: biochemical, Levilactobacillus brevis. The note with it: 0.2 mol/L HAc-NaAc buffer, pH 4.8, 10-100 mmol/L L-glutamate, standard assay 48 °C, 40 μmol/L PLP. An excerpt: initial rates; GABA dansylated, HPLC on GAD (glutamate decarboxylase; GAD1407)

B1: GAD (glutamate decarboxylase; GAD1407) (Levilactobacillus brevis; N193D) (protein)
chain: MAMLYGKHTHETDETLKPIFGASAERHDLPKYKLAKHALEPREADRLVRDQLLDEGNSRLNLATFCQTYMEPEAVELMKDTLEKNAIDKSEYPRTAEIENRCVNIIANLWHAPEAESFTGTSTIGSSEACMLAGLAMKFAWRKRAKANGLDLTAHQPNIVISAGYQVCWEKFCVYWDIDMHVVPMDDDHMSLDVDHVLDYVDDYTIGIVGIMGITYTGQYDDLARLDAVVERYNRTTKFPVYIHVDAASGGFYTPFIEPELKWDFRLNNVISINASGHKYGLVYPGVGWVIWRDQQYLPKELVFKVSYLGGELPTMAINFSHSASQLIGQYYNFIRFGFDGYREIQEKTHDVARYLAKSLTKLGGFSLINDGHELPLICYELTADSDREWTLYDLSDRLLMKGWQVPTYPLPKNMTDRVIQRIVVRADFGMSMAHDFIDDLTQAIHDLDQAHIVFHSDPQPKKYGFTH
notes: pET28a(+)-GAD1407, expressed in E. coli BL21(DE3), Ni-NTA purified (His tag)
Take B1: the Km was found to be 34.35 mM, the kcat was 138 s⁻¹ and the kcat/Km is 4000 M⁻¹ s⁻¹.

B2: GAD (glutamate decarboxylase; GAD1407) (Levilactobacillus brevis; S325A) (protein)
chain: B1 chain with D193N, S325A
notes: as for B1
For B2, the Km came out at 42.39 mM, the kcat was found to be 176 s⁻¹ and the kcat/Km amounted to 4160 M⁻¹ s⁻¹.

B3: GAD (glutamate decarboxylase; GAD1407) (Levilactobacillus brevis; D203E) (protein)
chain: B1 chain with D193N, D203E
notes: as for B1
In the case of B3, the Km came out at 26.60 mM, the kcat worked out at 40.2 s⁻¹ and the kcat/Km amounted to 1510 M⁻¹ s⁻¹.

B4: GAD (glutamate decarboxylase; GAD1407) (Levilactobacillus brevis) (protein)
chain: B1 chain with D193N
notes: as for B1
Turning to B4, the Km is given as 39.72 mM, the kcat was 102 s⁻¹ and the kcat/Km worked out at 2570 M⁻¹ s⁻¹.
